Data as given in paper PMC3726423.

Tests used:
[1] = system: aCBF5; experiment: EMSA; details: EMSA: 150 mM KCl, 1.5 mM MgCl2, 0.2 mM EDTA, 20 mM HEPES pH 7.9, 65 C 10 min, 50 fmol sRNA, 200 nM proteins (Kd: 50-400 nM aCBF5); fluorescence: 300 mM NaCl …
[2] = target: aNOP10 (P. abyssi) (UniProt Q9V0E3)
[3] = target: aNOP10 Y41A/Y44A (P. abyssi) (UniProt Q9V0E3)
[4] = target: aCBF5;aNOP10 Y41A/Y44A (Y);L7Ae (Pyrococcus abyssi;Pyrococcus abyssi) (UniProt P62008); experiment: EMSA; details: radiolabeled substrate, excess unlabeled sRNP; EMSA: 150 mM KCl, 1.5 mM MgCl2, 0.2 mM EDTA, 20 mM HEPES pH 7.9, 65 C 10 min, 50 fmol sRNA, 200 nM proteins (Kd: 50-400 nM aCBF5); fluorescence: 300 mM NaCl …
[5] = target: aCBF5;aNOP10;L7Ae H70A/L74A/E77A (HLE) H65A;L69A;E72A (Pyrococcus abyssi;Pyrococcus abyssi) (UniProt P62008); experiment: EMSA; details: radiolabeled substrate, excess unlabeled sRNP; EMSA: 150 mM KCl, 1.5 mM MgCl2, 0.2 mM EDTA, 20 mM HEPES pH 7.9, 65 C 10 min, 50 fmol sRNA, 200 nM proteins (Kd: 50-400 nM aCBF5); fluorescence: 300 mM NaCl …

Chain of aNOP10 (P. abyssi) (Q9V0E3 whole entry): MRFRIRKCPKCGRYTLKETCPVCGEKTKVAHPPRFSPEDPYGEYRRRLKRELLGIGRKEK
Chain of aNOP10 Y41A/Y44A (P. abyssi) (Q9V0E3 whole entry Y41A/Y44A): as the sequence (Q9V0E3 whole entry) above, with Y41A, Y44A counted along it

GGGGAUCCCCUCCCCUCCCGCCCUCUCCGGGGAAUCGUGAACCGGGGGUUCCGGGGGAGGGGACAGU [Pab21P191 chimera]
Kd [1]: 200 nM

GGGGAUGGGCCCGGCUCCCGCCCUCUCCGGGGAAUCGUGAACCGGGGGUUCCGGCCGGGCCUACAGU [Pab21 H/ACA sRNA]
Kd [1]: 125 nM

GGGUAAUGGGGCCCGGCUCUCACACCUCCGGGAUCAGUGACCGGAGGGCGGUCGCCGGGCCUACACCU [Pab91P121 chimera]
Kd [1]: 200 nM

L7Ae (from UniProt P62008 1-123) (natural protein)
δ(Δε): decrease of the RNA CD signal at λmax on addition of L7Ae to the aCBF5-aNOP10-Pab21 complex (M^−1.cm^−1 per nt) [2]: -1.21 | δ(Δε): decrease of the RNA CD signal at λmax on addition of wild-type L7Ae to the aCBF5-aNOP10(Y41A/Y44A)-Pab21 complex (M^−1.cm^−1 per nt) [3]: -0.82

L7Ae triple mutant H70A/L74A/E77A (from UniProt P62008 1-123) (natural protein)
δ(Δε): decrease of the RNA CD signal at λmax on addition of L7Ae H70A/L74A/E77A to the wild-type aCBF5-aNOP10-Pab21 complex (M^−1.cm^−1 per nt) [2]: -0.825

Pab21 guide + substrate RNA
binding signal (fold decrease of CII') [4]: 2 | binding signal (fold decrease of CII') [5]: 2
